Results taken from patent US20250296984A1, “THERAPEUTIC AND DIAGNOSTIC AGENTS AND USES THEREOF” (priority 2022, published 2025).
Marks after values point to notes of the source that are not given here.

B1: 13-1C10-1C10: mouse hybridoma subclone antibody against US28 ECD3 Peptide-1 and -2; sequenced (antibody)
heavy: EVKLVESGGVLVKPGGSLKFSCAASGFTFSSHALSWVRQTPEKRLEWVASISSRGRTYYPDSVKGRFTVSRDNARNILYLQVSSLRSEDTAMYYCTRGGTHYSYGNGFDFWGQGTTLTVSSAKTTPPSVYPLAPGSAAQTNSMVTLGCLVKGYFPEPVTVTWNSGSLSSGVHTFPAVLQSDLYTLSSSVTVPSSTWPSETVTCNVAHPASSTKVDKKIVPRDCGCKPCICTVPEVSSVFIFPPKPKDVLTITLTPKVTCVVVDISKDDPEVQFSWFVDDVEVHTAQTQPREEQFNSTFRSVSELPIMHQDWLNGKEFKCRVNSAAFPAPIEKTISKTKGRPKAPQVYTIPPPKEQMAKDKVSLTCMITDFFPEDITVEWQWNGQPAENYKNTQPIMDTDGSYFIYSKLNVQKSNWEAGNTFTCSVLHEGLHNHHTEKSLSHSPGK
light: QIVLTQSPAIMSASPGEKVTMTCSVSSSVSYMHWYQQKSGTSPKRWIYDTSKLASGVPARFSGSGSGTSYSLTISTMEAEDAATYYCQQWSNNPPITFGAGTKLELKRADAAPTVSIFPPSSEQLTSGGASVVCFLNNFYPKDINVKWKIDGSERQNGVLNSWTDQDSKDSTYSMSSTLTLTKDEYERHNSYTCEATHKTSTSPIVKSFNRNEC
B2: 14-1H3-1A10: mouse hybridoma subclone antibody against US28 ECD3 Peptide-1 and -2; sequenced (antibody)
heavy: EVKLVESGGVLVKPGGSLKFSCAASGFTLSSHALSWVRQTPEKRLEWVASISSRGRTYYPDSVKGRFTVSRDNARNILYLQVSSLRSEDTAMYYCTRGGTHYSYGNGFDFWGQGTTLTVSSAKTTPPSVYPLAPGSAAQTNSMVTLGCLVKGYFPEPVTVTWNSGSLSSGVHTFPAVLQSDLYTLSSSVTVPSSTWPSETVTCNVAHPASSTKVDKKIVPRDCGCKPCICTVPEVSSVFIFPPKPKDVLTITLTPKVTCVVVDISKDDPEVQFSWFVDDVEVHTAQTQPREEQFNSTFRSVSELPIMHQDWLNGKEFKCRVNSAAFPAPIEKTISKTKGRPKAPQVYTIPPPKEQMAKDKVSLTCMITDFFPEDITVEWQWNGQPAENYKNTQPIMDTDGSYFIYSKLNVQKSNWEAGNTFTCSVLHEGLHNHHTEKSLSHSPGK
light: QIVLTQSPAIMSASPGEKVTMTCSVSSSVSYMHWYQQKSGTSPKRWIYDTSKLASGVPARFSGSGSGTSYSLTISTMEAEDAATYYCQQWSNNPPITFGAGTKLELKRADAAPTVSIFPPSSEQLTSGGASVVCFLNNFYPKDINVKWKIDGSERQNGVLNSWTDQDSKDSTYSMSSTLTLTKDEYERHNSYTCEATHKTSTSPIVKSFNRNEC
B3: 13-5G6-1D3 clone: antibody from hybridoma clone US28-13-5G6-1D3 (antibody)
heavy: EVKLVESGGGLVQPGGSLRLACATSGFTFTDYYMSWVRQPPGKALEWLGFIRSKANGYTTEYSASVKGRFTISRDNSQSILYLQMNTLRSEDSATYYCARDERRTAWLAYWGQGTLVTVSAAKTTPPSVYPLAPGSAAQTNSMVTLGCLVKGYFPEPVTVTWNSGSLSSGVHTFPAVLQSDLYTLSSSVTVPSSTWPSETVTCNVAHPASSTKVDKKIVPRDCGCKPCICTVPEVSSVFIFPPKPKDVLTITLTPKVTCVVVDISKDDPEVQFSWFVDDVEVHTAQTQPREEQFNSTFRSVSELPIMHQDWLNGKEFKCRVNSAAFPAPIEKTISKTKGRPKAPQVYTIPPPKEQMAKDKVSLTCMITDFFPEDITVEWQWNGQPAENYKNTQPIMDTDGSYFIYSKLNVQKSNWEAGNTFTCSVLHEGLHNHHTEKSLSHSPGK
light: DVLMTQTPLSLPVSLGDQASISCRSSQSIVHSNGNTYLDWYLQKPGQSPKLLIYKVSNRFSGVPDRFSGSGSGTDFTLKISRVEAEDLGVYYCFQGSHVPTWTFGGGTKLEIKRADAAPTVSIFPPSSEQLTSGGASVVCFLNNFYPKDINVKWKIDGSERQNGVLNSWTDQDSKDSTYSMSSTLTLTKDEYERHNSYTCEATHKTSTSPIVKSFNRNEC

Tests used:
[1] = molecular target: T1, Peptide-2 […] (SEQ ID NO: 7), US28 ECD3 4D variant (Human cytomegalovirus, UniProt P69332); assay: ELISA, binding to Bio-Peptide-2; parameters: species or system HCMV; settings: 4D variant peptide
T1 construct: made in house; host or cells: chemical synthesis
Experimental: Microtiter plate wells were coated with 100 μl of the solution containing: (i) Bio-Peptide-N; or (ii) Bio-Peptide-1 and Bio-Peptide-2; at a concentration of between 1-10 μg/ml in coating buffer, consisting of Na2CO3, 1.5 g and NaHCO3, 2.93 g in 1 L of distilled water in pH 9.6, and then incubated for 1-2 hours at room temperature. The plate was washed 3 times in wash buffer consisting of PBS containing 0.05% v/v Tween-20 and blotted with paper towels thereafter. 150 μl of blocking solution containing Phosphate buffered saline (PBS) containing 1% w/v BSA, was added to each well and the plate was incubated for 2 hours at 37° C. The wells were washed 4 times in wash buffer and blotted on paper towels after the last wash. 100 μl of antibody dilution was added to each well and the plate was incubated for 1 hour at 37° C. and thereafter washed 3 times in wash buffer. 100 μl enzyme-conjugated secondary antibody (appropriately diluted in wash buffer) was added to each well and the plate was incubated for 1 hour at 37° C. The wells were then again washed 3 times in wash buffer and blotted with paper towels after the last wash. […] The absorbance values were read immediately at the appropriate wavelength and the data analyzed by Cmax Plus, Molecular Devices, San Jose, CA 95134, USA, […]

[2] = test system: control CHO cells (US28 negative); assay: FACS binding to US28 negative control CHO cells; parameters: species or system Chinese hamster; settings: Table 7A; (1:5) (200 μg/ml); secondary antibody background removed
Experimental: (§1) Flowcytometry was used to analyze cell surface binding by the US28 antibodies. Upon cell harvest, adherent non-infected and US28 overexpressing or HCMV infected cells were washed three times with cell staining buffer (phosphate-buffered saline (PBS (Amresco, Cleveland, 44139, USA) added 0.5% BSA and 0.05% Sodium Azide (NaN3)). The cells were trypisinized and then resuspended in DMEM with 10% FBS to inhibit the action of trypsin. The cells were then pelleted at 400×g for 10 minutes and washed three times in cell staining buffer. Cell viability and cell concentration were measured by tryphan blue viability assay and a cell counter (Countess, Invitrogen, Carlsbad, CA 92008, USA). The cell suspension was adjusted to 1×10^6 cells/mL with ice-cold cell staining buffer. The cells were blocked in 1 ml 10% FBS or 1% BSA in PBS per 1×10^6 cells, vortexed briefly, and incubated for 10-30 minutes to eliminate non-specific staining. The cells were then stained with the respective antibodies and appropriate negative controls.
(§2) In both cases (ECD1 and ECD3), the antibodies were added to the cells, vortexed and incubated on ice for 15 to 30 minutes up to overnight and washed twice with cell staining buffer to remove any unbound antibodies. In addition, the CMV Immediate Early Antigen (IE) Alexa488 Ab, MAB810X, 1:50 was included to verify HCMV infected cells in one of the experiments. Because it binds to an intracellular, HCMV encoded protein, it was added after permeabilizing the cells in 70% ethanol for 30 min on ice.
(§3) 1:500-1:5000 in cell staining buffer of the appropriate fluorescent-conjugated appropriate secondary antibodies were added and incubated on ice for 15-20 min in the dark. The cells were washed three times to remove any unbound antibodies. The cells were then fixed with 0.5% paraformaldehyde (PFA) for 30 min on ice and resuspended in 200-500 μL cell staining buffer for final flow cytometric analysis using an Accuri C6 flow cytometry system (BD Biosciences, San Jose, CA 95131, USA). Data analyses were performed using FlowJo software v8.8 (Treestar Inc. Ashland, OR 97520, USA).
(§4) Background levels were determined using the respective secondary antibodies (anti-mFc-FITC for the subclones, or anti-myc-PE for the VUN100 molecules) with CHO cells and CHO-US28 cells. Given that US28 is expressed on the cell surface, the cells were non-permeabilised for these experiments.

[3] = molecular target: T2, HCMV US28 (strain DB) on CHO-US28-A1 cells (Human cytomegalovirus, UniProt P69332, D170N/D19A); assay: FACS surface binding to CHO-US28-A1 cells; settings: CHO-US28-A1 cells compared with US28 negative control CHO cells
T2 construct: expressed in transfected cells; host or cells: CHO-K1 (vector pCDH-EF1a-MCS)
Experimental: Plasmid construction was performed to create a US28-overexpressing cell line. The US28 sequence, identical to HCMV DB strain (Acc. Number: KT959235; SEQ ID No. 5 of this application), fused to a 6His tag at its C terminal part, was inserted into the pCDH-EF1a-MCS vector (Creative Biolabs, Shirley, NY 11967, USA). The plasmid construct was transfected to CHO-K1 cell line. The cells were collected 48 hours after transfection. The cell line was named as CHO-US28-A1-6His and its protein sequence (SEQ ID NO: 47) is the following:
as §1
The primary antibodies used were I) 13-5G6-1D3 (50 μg/ml) as a positive control; II) Monovalent and Bivalent VUN100 ScFvs 1:1 (50 μg/ml); III) test antibodies for the specified subclones (1:5).
The primary antibodies used were I) 13-5G6-1D3 1:50 to 50 μg/ml; and II) Commercial US28 polyclonal antibody (50 μg/ml), III) Monovalent and Bivalent VUN100 ScFvs (50 μg/ml) and for certain experiments, the appropriate isotype controls were included.
as §2, §3, §4

Molecule	Absorbance values, Peptide 2 [1]	Percentage of binding to CHO cells [2] [%]	Binding Specificity (ratio of surface binding) [3]
B1	3.029	0.62	–
B2	2.842	0.58	–
B3	–	–	15.2*
